Assay results: patent publication US6335019B1, “Methods for treating sensitivity to protein allergen using peptides which include a T cell epitope recognized by a T cell receptor specific for the protein allergen” (Immulogic Pharmaceutical Corp., priority 1989, dated 2002)

B1: affinity purified Amb a I: protein affinity purified from pollen extract with monoclonal antibody 4B5/B7 (protein)
chain: AEDLQEILPVNETRRLTTSGAYNIIDGCWRGKADWAENRKALADCAQGFGKGTVGGKDGDIYTVTSELDDDVANPKEGTLRFGAAQNRPLWIIFERDMVIRLDKEMVVNSDKTIDGRGAKVEIINAGFTLNGVKNVIIHNINMHDVKVNPGGLIKSNDGPAAPRAGSDGDAISISGSSQIWIDHCSLSKSVDGLVDAKLGTTRLTVSNSLFTQHQFVLLFGAGDENIEDRGMLATVAFNTFTDNVDQRMPRCRHGFFQVVNNNYDKWGSYAIGGSASPTILSQGNRFCAPDERSKKNVLGRHGEAAAESMKWNWRTNKDVLENGAIFVASGVDPVLTPEQSAGMIPAEPGESALSLTSSAGVLSCQPGAPC
B2: Amb a IB: E. coli expressed recombinant Amb a IB, used as crude bacterial lysate (protein)
chain: LYFTLALVTLLQPVRSAEDVEEFLPSANETRRSLKACEAHNIIDKCWRCKADWANNRQALADCAQGFAKGTYGGKHGDVYTVTSDKDDDVANPKEGTLRFAAAQNRPLWIIFKRNMVIHLNQELVVNSDKTIDGRGVKVNIVNAGLTLMNVKNIIIHNINIHDIKVCPGGMIKSNDGPPILRQQSDGDAINVAGSSQIWIDHCSLSKASDGLLDITLGSSHVTVSNCKFTQHQFVLLLGADDTHYQDKGMLATVAFNMFTDHVDQRMPRCRFGFFQVVNNNYDRWGTYAIGGSSAPTILSQGNRFFAPDDIIKKNVLARTGTGNAESMSWNWRTDRDLLENGAIFLPSGSDPVLTPEQKAGMIPAEPGEAVLRLTSSAGVLSCHQGAPC
B3: Amb a IC: E. coli expressed recombinant Amb a IC, used as crude bacterial lysate (protein)
chain: LYFTLALVALLQPVRSAEGVGEILPSVNETRSLQACEALNIIDKCWRGKADWENNRQALADCAQGFAKGTYGGKWGDVYTVTSNLDDDVANPKEGTLRFAAAQNRPLWIIFKNDMVINLNQELVVNSDKTIDGRGVKVEIINGGLTLMNVKNIIIHNINIHDVKVLPGGMIKSNDGPPILRQASDGDTINVAGSSQIWIDHCSLSKSFDGLVDVTLGSTHVTISNCKFTQQSKAILLGADDTHVQDKGMLATVAFNMFTDNVDQRMPRCRFGFFQVVNNNYDRWGTYAIGGSSAPTILCQGNRFLAPDDQIKKNVLARTGTGAAESMAWNWRSDKDLLENGAIFVTSGSDPVLTPVQSAGMIPAEPGEAAIKLTSSAGVFSCRPGAPC
B4: Amb a IA: full-length recombinant Amb a IA, amino acid 10-398, E. coli expressed, used as crude bacterial lysate (protein)
chain: LYFTLALVTLLQPVRSAEDLQEILPVNETRRLTTSGAYNIIDGCWRGKADWAENRKALADCAQGFGKGTVGGKDGDIYTVTSELDDDVANPKEGTLRFGAAQNRPLWIIFERDMVIRLDKEMVVNSDKTIDGRGAKVEIINAGFTLNGVKNVIIHNINMHDVKVNPGGLIKSNDGPAAPRAGSDGDAISISGSSQIWIDHCSLSKSVDGLVDAKLGTTRLTVSNSLFTQHQFVLLFGAGDENIEDRGMLATVAFNTFTDNVDQRMPRCRHGFFQVVNNNYDKWGSYAIGGSASPTILSQGNRFCAPDERSKKNVLGRHGEAAAESMKWNWRTNKDVLENGAIFVASGVDPVLTPEQSAGMIPAEPGESALSLTSSAGVLSCQPGAPC

Key:
[1] = test system: T cells from patients allergic to ragweed; assay: T cell proliferation of ragweed allergic patient T cells to ragweed proteins and recombinant lysates (tritiated thymidine); assay type: cell-based, human; conditions: for T cell recognition and proliferation (in words): T cells previously stimulated with mixed ragweed pollen extract, summary of Table 4
Excerpt: T cells from patients allergic to ragweed, previously stimulated with a mixed ragweed pollen extract, can recognize and proliferate in response to pollen extract, ragweed skin test reagent (RWST), affinity purified Amb a I protein and crude bacterial lysates containing recombinant Amb a I gene products IA, IB and IC (Table 4). […] The use of crude bacterial lysates as antigens precludes a firm conclusion form the negative responses, since the relative levels of recombinant proteins in lysate have not been determined.
Peripheral blood mononuclear cells (PBMC) were purified from 60 ml of heparinized blood from ragweed-allergic patients. PBMC were subsequently treated as described below, although in individual cases, the length of time of cultivation with IL-2 and IL-4 and the specific ragweed proteins and peptides used for stimulation varied. As an example, ten ml of patient 222 PBMC at 10^6/ml were cultured at 37° C. for 7 days in the presence of 20 micrograms aqueous ragweed pollen extract/ml RPMI-1640 supplemented with 5% pooled human AB serum. Viable cells were purified by Ficoll-Hypaque centrifugation and cultured for three weeks at 5 units recombinant human IL-2/ml and 5 units recombinant human IL-4/ml. The resting T cells were then restimulated (secondary) with 20 micrograms aqueous ragweed pollen extract/ml at a density of 2×10^5 cells/ml in the presence of X-irradiated (3500 RADS) autologous PBMC (5×10^5/ml) for three days, purified by Ficoll-Hypaque centrifugation and grown in 5 units IL-2/ml and 5 units IL-4/ml for two weeks. For assay, 2×10^4 resting secondary T cells were restimulated (tertiary) in the presence of 5×10^4 X-irradiated (3500 RADS) autologous PBMC or 2×10^4 autologous Epstein-Barr virus-transformed B cells (20,000 RADS) with various concentrations of allergen or their fragments in a volume of 200 microliters in 96-well round bottom assay plates for 3 days. Each well then received 1 microCurie tritiated (methyl) thymidine for 16 hours. The counts incorporated were collected onto glass fiber filters and processed for liquid scintillation counting. […] Antigens used: IPC aqueous pollen extract (pollen), Hollister-Stier ragweed skin test extract (RWST), ALK cat epithelium skin test extract (CST), affinity 4B5/B7 antibody purified (dialyzed) Amb a I (B7), and chromatographically purified Amb a I and (Amb a I). Medium only control is shown as a line with no symbol. Alternatively, PBMC were sometimes carried only into a secondary assay (as outlined above for a tertiary assay) with 20 micrograms aqueous pollen extract 7 days, followed by culture in 5 units IL-2/ml and 5 units IL-4/ml for 2-3 weeks. […] Secondary and tertiary assays of a panel of ragweed allergic patients were performed using synthetic peptides derived from the sequences of various ragweed pollen proteins. […] Another four peptides (RAE15.6, RAE3.D, RAE28.1, RAE26.15) which are also derived from the sequence of the same three cDNA's could stimulate 35 to 58% of the patients' T cells. One peptide (RAE4) which is derived from the cDNA of IPC Clone 5 could also stimulate 25% of the patients' T cells. […] By this method it is possible to identify novel therapeutic and diagnostics entities for use in the treatment and the diagnosis of ragweed allergy.

[2] = test system: rabbit antisera directed against an Amb a II sequence (amino acid 326-338; RAE 50. K); assay: Western blot of recombinant proteins with monospecific anti-peptide antisera against RAE 50. K; assay type: binding; conditions: Western blots, data not shown
Excerpt: Proteins or peptides encoded by the cDNA of the present invention can be used, for example, as “purified” allergens. Such purified allergens are useful in the standardization of allergen extracts which are key reagents for the diagnosis and treatment of ragweed allergy. Furthermore, by using peptides based on the sequences listed in FIGS. 2 through 16, anti-peptide antisera or monoclonal antibodies can be made using standard methods. Such reagents can be specifically directed against individual isoforms of Amb a I or Amb a II (i.e., directed against divergent regions/epitopes of the molecule) or can be specific for all forms Amb a I or Amb a II (i.e, directed against common sequences/epitopes). These sera or monoclonal antibodies, directed against Amb a I or Amb a II, can be used to standardize allergen extracts. One such monospecific anti-peptide antisera has already been successfully produced.

[3] = patient 151 2° (secondary assay)
[4] = patient 222 2° (secondary assay)
[5] = patient 274 2° (secondary assay)
[6] = patient 296 2° (secondary assay)
[7] = patient 314 2° (secondary assay)
[8] = patient 316 2° (secondary assay)
[9] = patient 319 2° (secondary assay)
[10] = patient 320 2° (secondary assay)
[11] = patient 321 2° (secondary assay)
[12] = patient 295 2° (secondary assay)

Molecule | T cell recognition and proliferation (in words) [1] | T cell response in secondary assay (in words) ([1]; one ragweed allergic patient, FIG. 21) | Stimulatory response of human T cells (proliferation compared to medium control) [1, 3] | Stimulatory response of human T cells (proliferation compared to medium control) [1, 4] | Stimulatory response of human T cells (proliferation compared to medium control) [1, 5] | Stimulatory response of human T cells (proliferation compared to medium control) [1, 6] | Stimulatory response of human T cells (proliferation compared to medium control) [1, 7] | Stimulatory response of human T cells (proliferation compared to medium control) [1, 8] | Stimulatory response of human T cells (proliferation compared to medium control) [1, 9] | Stimulatory response of human T cells (proliferation compared to medium control) [1, 10] | Stimulatory response of human T cells (proliferation compared to medium control) [1, 11] | Binding by rabbit anti-RAE 50. K antisera (in words) [2] | Stimulatory response of human T cells (proliferation compared to medium control) [1, 12]
B1 | proliferate | responded | (+) (2 fold) | +++ (>10 fold) | ++ (4-10 fold) | +++ (>10 fold) | +++ (>10 fold) | +++ (>10 fold) | ++ (4-10 fold) | +++ (>10 fold) | + (2-4 fold) | – | –
B2 | proliferate | – | + (2-4 fold) | – | + (2-4 fold) | +++ (>10 fold) | +++ (>10 fold) | ++ (4-10 fold) | (+) (2 fold) | + (2-4 fold) | ++ (4-10 fold) | not | + (2-4 fold)
B3 | proliferate | – | + (2-4 fold) | ++ (4-10 fold) | ++ (4-10 fold) | +++ (>10 fold) | +++ (>10 fold) | +++ (>10 fold) | ++ (4-10 fold) | – | + (2-4 fold) | not | + (2-4 fold)
B4 | proliferate | – | (+) (2 fold) | ++ (4-10 fold) | – | – | – | – | – | – | – | not | –
